Measurements published in US20250154213A1, “De Novo Designed Cortisol Biosensor” (University of Washington, priority 2023, published 2025).

Key:
[1] = system: seq129.1_CID-SmBiT and mini11-LgBiT; test: Cortisol sensing with NanoBiT fusions (luminescence on cortisol titration); assay type: biochemical; settings: seq129.1_CID-SmBiT and mini11-LgBiT mixed equimolar, cortisol 2-3 hours, DTZ 25 μM; estimated; read-out: EC50 of luminescent signal on cortisol titration
From the text: FIG. 2. Design and characterization of a cortisol-dependent heterodimer. (A) Design pipeline for cortisol-induced heterodimerization. Starting from a model of seq129.1_CID in complex with cortisol (top), we used RIFdock™ and a library of designed 3-helix bundles to generate thousands of putative ternary complexes (middle), and amino acid sequences encoding these complexes were generated with FastDesign™ and ProteinMPNN™ (bottom). Zoom-in of the designed CID ternary complex (seq129.1_CID, mini11, and cortisol) (bottom panel). (B) Size-exclusion chromatography traces of an equimolar solution of seq129.1 and mini11 (1 μM) in the presence or absence of cortisol (10 μM). (C) Schematic diagram of the designed cortisol-induced heterodimerization coupled with a binary split luciferase to create a biosensor. […]
As a proof-of-concept for the application of the designed CID as a sensor for cortisol, we genetically fused seq129.1_CID and mini11 to the SmBiT and LgBiT components of the NanoBiT™ system, respectively, which reconstitutes NanoBiT™ and generates luminescence when brought in close proximity by a molecular interaction 18.
seq129.1_CID and mini11 were genetically fused to SmBiT and LgBiT, respectively, and ordered as eblocks from IDT. […] Immediately after adding DTZ, the luminescent signal was measured on a Neo2 plate reader. […]

[2] = system: seq129.1_CID; test: Native mass spectrometry of the ternary complex; assay type: binding; settings: cortisol and mini11
[3] = target: T1, seq129.1_CID-SmBiT; test: cell-based or functional assay
T1 chain: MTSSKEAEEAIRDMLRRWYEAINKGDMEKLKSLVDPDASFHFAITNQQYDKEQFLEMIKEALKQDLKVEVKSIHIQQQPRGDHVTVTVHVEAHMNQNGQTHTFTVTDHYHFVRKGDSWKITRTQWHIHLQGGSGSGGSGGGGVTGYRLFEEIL

C[C@]12CCC(=O)C=C1CC[C@@H]1[C@@H]2[C@@H](O)C[C@@]2(C)[C@H]1CC[C@]2(O)C(=O)CO [cortisol]
EC50 [1]: 25 nM

B1: mini11: designed 3-helix bundle minibinder that binds seq129.1_CID only with cortisol (protein)
chain: MSSASTLVKTFSLCMEALSIEDPEKREEVYEKARKLAEENNDPAALFLVESIKKQHEQSSSLE
ternary complex by native mass spectrometry [2]: revealed a molecular weight for the seq129.1_CID-cortisol-mini11 ternary complex

B2: mini11-LgBiT (designed binder)
chain: MSSASTLVKTFSLCMEALSIEDPEKREEVYEKARKLAEENNDPAALFLVESIKKQHEQSGGSGGMVFTLEDFVGDWEQTAAYNLDQVLEQGGVSSLLQNLAVSVTPIQRIVRSGENALKIDIHVIIPYEGLSADQMAQIEEVFKVVYPVDDHHFKVILPYGTLVIDGVTPNMLNYFGRPYEGIAVFDGKKITVTGTLWNGNKIIDERLITPDGSMLFRVTINS
luminescent signal of reconstituted NanoBiT on titration with cortisol (the EC50 is a cortisol concentration) [3]: 25 nM
